Residue numbers refer to the chain shown, from its start. Names may count otherwise.
B1: TAMRA-C5-labeled C3 W47F mini Q-body (VHH)
VHH: EVQLLESGGGLVQPGGSLRLSCAASGFRDSDEDMGWVRQAPGKGLEFVSSIYGESGSTYYADSVKGRFTISRDNSKNTLYLQMNSLRAEDTAVYYCASYNYYYNVFDYWGQGTLVTVSS
notes: as the VH of m1 with W47F; Same chain as m10 with the dye on the Cys-tag; also called W47F (after labeling with TAMRA-C5); source: labeled with TAMRA-C5; not shown: His-tag, C-terminal, kept
B2: C3 mini Q-body labeled with TAMRA-C0 (VHH)
VHH: B1 VHH with F47W
notes: as the VH of m1; Same chain as m1 with the dye on the Cys-tag; not shown: His-tag, C-terminal, kept
B3: C3 mini Q-body labeled with TAMRA-C2 (VHH)
VHH: B1 VHH with F47W
notes: as for B2
B4: C3 mini Q-body labeled with TAMRA-C5 (VHH)
VHH: B1 VHH with F47W
notes: as the VH of m1; Same chain as m1 with the dye on the Cys-tag; also called TAMRA-C5-labeled C3 mini Q-body; TAMRA-labeled C3WT; not shown: His-tag, C-terminal, kept
B5: C3 mini Q-body labeled with TAMRA-C6(5) (VHH)
VHH: B1 VHH with F47W
notes: as for B2
B6: C3 mini Q-body labeled with TAMRA-C6(6) (VHH)
VHH: B1 VHH with F47W
notes: as for B2
B7: C3 mini Q-body labeled with ATTO520 (VHH)
VHH: B1 VHH with F47W
notes: as the VH of m1; Same chain as m1 with the dye on the Cys-tag; also called ATTO520-C2; not shown: His-tag, C-terminal, kept
B8: C3 mini Q-body labeled with rhodamine 6G (R6G-C5) (VHH)
VHH: B1 VHH with F47W
notes: as the VH of m1; Same chain as m1 with the dye on the Cys-tag; also called R6G-C5 Q-body; Rhodamine 6G-labeled mini Q-body; not shown: His-tag, C-terminal, kept
B9: C3 mutant W47F (unlabeled) (VHH)
VHH: B1 VHH
notes: as the VH of m1 with W47F; not shown: His-tag, C-terminal, kept
B10: C3 mutant W36F (unlabeled) (VHH)
VHH: B1 VHH with W36F, F47W
notes: as the VH of m1 with W36F; not shown: His-tag, C-terminal, kept

Legend:
Conditions in all cases: both partners purified
hen egg lysozyme [1] = target: T1, hen egg lysozyme (Gallus gallus (hen), UniProt P00698); test: ELISA; HEL or BSA (2 μg/mL in 100 μL PBS) coated on microplate wells, 16 h 4 °C; sdAb or mini Q-body added at 2 μg/mL, 1 h 37 °C; bound protein probed with anti-His-HRP
T1 construct: hen egg lysozyme (HEL), lysozyme C of the chicken; No supplier is named for HEL; also called HEL; antigen
T1 sequence (P00698 19-147): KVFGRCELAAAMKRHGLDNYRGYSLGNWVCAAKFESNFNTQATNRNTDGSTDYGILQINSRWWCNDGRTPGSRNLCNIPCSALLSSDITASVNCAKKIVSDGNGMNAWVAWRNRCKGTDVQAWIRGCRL

bovine serum albumin = target: T2, bovine serum albumin (Bos taurus (bovine), UniProt P02769); test: other fluorescence titration; de-quenching at one concentration: 10 ng mini Q-body in 250 μL PBST; 10 μM antigen added, measured after 5 min; BSA as control antigen
T2 construct: bovine serum albumin (BSA); No supplier is named for BSA; also called BSA; control antigen
T2 sequence (P02769 25-607): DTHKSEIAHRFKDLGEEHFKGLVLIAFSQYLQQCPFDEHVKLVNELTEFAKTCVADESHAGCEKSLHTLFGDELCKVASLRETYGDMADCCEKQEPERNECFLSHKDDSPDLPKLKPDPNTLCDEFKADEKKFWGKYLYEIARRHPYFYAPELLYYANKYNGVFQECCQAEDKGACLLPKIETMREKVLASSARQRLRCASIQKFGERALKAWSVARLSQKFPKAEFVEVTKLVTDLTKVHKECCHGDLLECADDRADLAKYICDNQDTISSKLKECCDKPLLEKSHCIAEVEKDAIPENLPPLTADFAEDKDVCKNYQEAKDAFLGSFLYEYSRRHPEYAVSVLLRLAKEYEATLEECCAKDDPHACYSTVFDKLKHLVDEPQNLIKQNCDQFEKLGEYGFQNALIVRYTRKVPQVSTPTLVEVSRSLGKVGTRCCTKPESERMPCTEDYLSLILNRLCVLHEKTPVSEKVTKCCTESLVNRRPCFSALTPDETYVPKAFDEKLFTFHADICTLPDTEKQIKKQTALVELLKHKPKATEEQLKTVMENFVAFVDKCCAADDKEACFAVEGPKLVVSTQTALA

hen egg lysozyme [2] = target: T1, hen egg lysozyme; test: other fluorescence titration; de-quenching dose response: 10 ng mini Q-body in 250 μL PBST in a quartz cell; antigen added stepwise (0, 1 nM to 10 μM) at 5 min intervals; EC50 by 4-parameter logistic fit

Row | Binder | binding result (hen egg lysozyme [1]) | binding result (bovine serum albumin) | EC50 (hen egg lysozyme [2]) [nM]
1 | B1 | binds | – | –
2 | B2 | – | no binding | 39
3 | B3 | – | no binding | 50
4 | B4 | – | no binding | 263
5 | B5 | – | no binding | 401
6 | B6 | – | no binding | 362
7 | B7 | – | no binding | 276
8 | B8 | – | no binding | 397
9 | B9 | binds | – | –
10 | B10 | no binding (tested: 2 μg/mL) | – | –

— paper PMC9960136, “VH-Based Mini Q-Body: A Novel Quench-Based Immunosensor” (Sensors (Basel, Switzerland), 2023)
